Experimental data taken from publication PMC8775935, “Chebulinic Acid Suppresses Adipogenesis in 3T3-L1 Preadipocytes by Inhibiting PPP1CB Activity” (International Journal of Molecular Sciences, 2022).

Substrate: Cc1cc(=O)oc2c(F)c(OP(=O)(O)O)c(F)cc12
Test: enzyme kinetics, fluorescence of DiFMU product; KM
Format: biochemical, Homo sapiens
Conditions: Mn2+ ([…] MnCl2 in buffer)

B1: protein phosphatase-1 catalytic subunit beta (PPP1CB) (Homo sapiens) (protein)
chain: MADGELNVDSLITRLLEVRGCRPGKIVQMTEAEVRGLCIKSREIFLSQPILLELEAPLKICGDIHGQYTDLLRLFEYGGFPPEANYLFLGDYVDRGKQSLETICLLLAYKIKYPENFFLLRGNHECASINRIYGFYDECKRRFNIKLWKTFTDCFNCLPIAAIVDEKIFCCHGGLSPDLQSMEQIRRIMRPTDVPDTGLLCDLLWSDPDKDVQGWGENDRGVSFTFGADVVSKFLNRHDLDLICRAHQVVEDGYEFFAKRQLVTLF
Work on B1 yielded a Km of 186.2 µM, a Vmax of 3.4 µM/min and a kcat of 38.3 s⁻¹. For the same protein, the kcat/Km was 210000 M⁻¹ s⁻¹.
